# Assay results published in US6277558.
# Ends that are not written are not given here.
# Target: GP sera of Examples 8 to 11 (anti sera from two GP patients)
# Test: inhibition ELISA: peptide preincubated with GP antibodies for 12 hours, then plates coated with α3 NC1 bovine monomer
binder,measurement,value
"ISRCQVCMKKRH (also: the two cysteines blocked, group not given here) [α3 carboxy terminal peptide (12 Mer synthetic peptide of human α3(IV) NC1)]",percent inhibition at saturation,60%
